Data from patent publication US20210292386A1.
Read-outs that look alike come from different tables or passages of the source.

Columns and labels:
Assay in all cases: cell-based or functional assay
[1] = biological target: T1, high-affinity IL2 receptor (IL2Rαβγ) of the mouse T cell line CTLL-2 (mouse) (UniProt P01590)
T1 sequence (looked up) 1: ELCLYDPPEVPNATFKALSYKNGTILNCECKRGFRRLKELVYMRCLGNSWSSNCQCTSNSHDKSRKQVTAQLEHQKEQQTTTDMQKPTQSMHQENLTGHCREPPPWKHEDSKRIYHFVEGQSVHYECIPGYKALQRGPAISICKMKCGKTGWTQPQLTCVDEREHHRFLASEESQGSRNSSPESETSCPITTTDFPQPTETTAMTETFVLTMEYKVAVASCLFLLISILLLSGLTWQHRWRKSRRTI
T1 sequence (looked up) 2: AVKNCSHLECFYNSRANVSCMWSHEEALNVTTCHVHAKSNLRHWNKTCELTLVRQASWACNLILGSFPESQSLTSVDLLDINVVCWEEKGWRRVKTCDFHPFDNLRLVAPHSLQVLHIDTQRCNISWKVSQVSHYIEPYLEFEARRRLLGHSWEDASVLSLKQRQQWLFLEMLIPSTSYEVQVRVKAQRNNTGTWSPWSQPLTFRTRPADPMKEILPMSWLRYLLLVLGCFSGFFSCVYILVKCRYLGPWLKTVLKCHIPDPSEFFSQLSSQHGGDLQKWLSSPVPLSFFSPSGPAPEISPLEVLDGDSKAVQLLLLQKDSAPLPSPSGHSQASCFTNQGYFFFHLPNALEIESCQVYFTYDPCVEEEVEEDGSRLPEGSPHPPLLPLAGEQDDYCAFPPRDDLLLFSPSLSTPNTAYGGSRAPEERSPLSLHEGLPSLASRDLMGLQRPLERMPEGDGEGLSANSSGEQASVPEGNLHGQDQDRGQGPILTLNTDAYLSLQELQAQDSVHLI
T1 sequence (looked up) 3: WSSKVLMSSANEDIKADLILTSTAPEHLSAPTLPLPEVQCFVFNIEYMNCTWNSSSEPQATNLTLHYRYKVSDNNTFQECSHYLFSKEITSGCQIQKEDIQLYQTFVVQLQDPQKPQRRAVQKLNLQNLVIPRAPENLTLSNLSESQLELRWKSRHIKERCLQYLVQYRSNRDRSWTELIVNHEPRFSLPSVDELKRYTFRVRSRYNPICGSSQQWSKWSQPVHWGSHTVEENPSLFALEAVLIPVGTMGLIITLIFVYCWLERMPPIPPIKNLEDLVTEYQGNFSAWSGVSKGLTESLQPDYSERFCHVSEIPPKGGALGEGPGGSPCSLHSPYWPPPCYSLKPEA

[2] = biological target: high-affinity IL2 receptor (IL2Rαβγ), human, on CD4+CD25+FoxP3+ regulatory T cells (human) (UniProt P01589); parameters: unit not given beside the values
Chain of UniProt P01589 (P01589 22-272, chain 1 of 3): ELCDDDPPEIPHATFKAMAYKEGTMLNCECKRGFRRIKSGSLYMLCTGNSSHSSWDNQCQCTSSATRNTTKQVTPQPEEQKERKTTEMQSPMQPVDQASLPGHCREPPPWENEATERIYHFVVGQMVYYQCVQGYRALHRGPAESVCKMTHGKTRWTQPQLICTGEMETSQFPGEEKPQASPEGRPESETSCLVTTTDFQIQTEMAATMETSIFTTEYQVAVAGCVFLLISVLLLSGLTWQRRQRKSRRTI
Chain of UniProt P01589 (P14784 27-551, chain 2 of 3, further chain): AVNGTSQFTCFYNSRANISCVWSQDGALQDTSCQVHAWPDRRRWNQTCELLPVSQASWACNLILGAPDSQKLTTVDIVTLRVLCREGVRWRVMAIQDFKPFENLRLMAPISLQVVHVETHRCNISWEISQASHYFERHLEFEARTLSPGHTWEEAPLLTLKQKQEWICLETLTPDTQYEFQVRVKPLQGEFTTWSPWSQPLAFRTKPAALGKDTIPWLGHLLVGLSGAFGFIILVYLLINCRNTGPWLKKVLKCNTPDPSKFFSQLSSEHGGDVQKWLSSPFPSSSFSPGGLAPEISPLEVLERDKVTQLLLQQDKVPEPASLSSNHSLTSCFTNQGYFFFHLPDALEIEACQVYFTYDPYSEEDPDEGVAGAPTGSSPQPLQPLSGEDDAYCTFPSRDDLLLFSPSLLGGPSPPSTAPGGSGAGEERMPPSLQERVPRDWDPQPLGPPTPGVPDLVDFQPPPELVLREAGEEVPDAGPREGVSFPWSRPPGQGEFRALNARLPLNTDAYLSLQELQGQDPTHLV
Chain of UniProt P01589 (P31785 23-369, chain 3 of 3, further chain): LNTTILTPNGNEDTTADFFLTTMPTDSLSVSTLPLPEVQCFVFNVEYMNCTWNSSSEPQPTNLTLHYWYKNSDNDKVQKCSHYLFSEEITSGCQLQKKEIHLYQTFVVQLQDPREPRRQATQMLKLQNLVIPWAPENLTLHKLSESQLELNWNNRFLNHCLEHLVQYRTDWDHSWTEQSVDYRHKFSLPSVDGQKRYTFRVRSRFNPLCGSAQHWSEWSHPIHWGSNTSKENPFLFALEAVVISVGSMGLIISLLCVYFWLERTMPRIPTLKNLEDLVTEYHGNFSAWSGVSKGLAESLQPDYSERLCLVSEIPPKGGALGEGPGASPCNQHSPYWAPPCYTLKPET

[3] = biological target: intermediate-affinity IL2 receptor (IL2Rβγ), human (human) (UniProt P14784); parameters: unit not given beside the values
Chain of UniProt P14784 (P14784 27-551, chain 1 of 2): as the sequence (P14784 27-551, chain 2 of 3, further chain) above
Chain of UniProt P14784 (P31785 23-369, chain 2 of 2, further chain): as the sequence (P31785 23-369, chain 3 of 3, further chain) above

[4] = biological target: T1, high-affinity IL2 receptor (IL2Rαβγ) of the mouse T cell line CTLL-2 (mouse); remark: listed apart in the source
[5] = biological target: intermediate-affinity IL2 receptor (IL2Rβγ), human (human) (UniProt P14784)

EC50 of CTLL-2 proliferation (%-supernatant) [1]: 0.115
EC50 of STAT5 phosphorylation, CD4+CD25+FoxP3+ Treg (%-supernatant) [2]: 0.111
EC50 of STAT5 phosphorylation, CD4+CD25- T helper cells (%-supernatant) [3]: 4.36
EC50 of CTLL-2 proliferation (%-supernatant) [4]: 0.214
EC50 of TF-1 IL2Rβγ proliferation (%-supernatant) [5]: 2.35
Substance: hAlb-hIL2 (ligand)
EC50 of STAT5 phosphorylation, CD8+ cytotoxic T cells (%-supernatant) [3]: 6.84
